Data reported in US7470669B2, “Isolated polypeptide comprising a leptin fragment” (Serono Genetics Institute, S.A., priority 1999, dated 2008).

Legend:
[1] = Plasma leptin concentration after subcutaneous leptin injection in ob/ob mice; format: in vivo, mouse; details: 50 ng s.c., at 2 h
Source text: Na ^125I was purchased from Amersham-Pharmacia (Piscataway, N.J.; Les Ulis, France). Oleic acid, bovine serum albumin (A2153) (BSA), were obtained from Sigma (St. Louis, Mo.; St. Quentin Fallavier, France). Sodium heparin was purchased from Choay laboratories (Gentilly, France). Fugene was purchased from Roche Boehringer Mannheim (Indianapolis, Ind.), and Superfect from Qiagen (Valencia, Calif.). Zeocin was obtained from Invitrogen (Carlsbad, Calif.). Suramin was a gift from Bayer Pharmaceuticals (Puteaux, France). Enzymatic kits for the determination of TG and FFA were obtained from Roche-Boehringer Mannheim (Meylan, France) and WAKO (Richmond, Va.; Unipath, Dardilly, France), respectively. Dulbecco's modified Eagle's medium (DMEM), trypsin, penicillin-streptomycin, glutamine, and fetal bovine serum (FBS) were purchased from Life Technologies, Inc (Grand Island, N.Y.; Eragny, France). RIA kits for plasma leptin measurements were obtained from Linco (St. Louis, Mo.). […]
This injection caused a transient increase in plasma leptin concentrations up to 3.25±0.03 ng/mL at 2 h; baseline values were recorded 4 h after injection. […]

[2] = molecular target: T1, LSR α′ (Homo sapiens, UniProt Q86X29); experiment: 125I-leptin binding, uptake and degradation in CHO-K1 cells transfected with LSR α′; format: cell-based
T1 construct: The full-length LSR α, α′, and β clones were reconstructed in pTracer-CMV2 vector; expressed in transfected cells; host or cells: CHO-K1 (transient with Fugene)
T1 sequence (Q86X29 1-630 isoform Q86X29-4): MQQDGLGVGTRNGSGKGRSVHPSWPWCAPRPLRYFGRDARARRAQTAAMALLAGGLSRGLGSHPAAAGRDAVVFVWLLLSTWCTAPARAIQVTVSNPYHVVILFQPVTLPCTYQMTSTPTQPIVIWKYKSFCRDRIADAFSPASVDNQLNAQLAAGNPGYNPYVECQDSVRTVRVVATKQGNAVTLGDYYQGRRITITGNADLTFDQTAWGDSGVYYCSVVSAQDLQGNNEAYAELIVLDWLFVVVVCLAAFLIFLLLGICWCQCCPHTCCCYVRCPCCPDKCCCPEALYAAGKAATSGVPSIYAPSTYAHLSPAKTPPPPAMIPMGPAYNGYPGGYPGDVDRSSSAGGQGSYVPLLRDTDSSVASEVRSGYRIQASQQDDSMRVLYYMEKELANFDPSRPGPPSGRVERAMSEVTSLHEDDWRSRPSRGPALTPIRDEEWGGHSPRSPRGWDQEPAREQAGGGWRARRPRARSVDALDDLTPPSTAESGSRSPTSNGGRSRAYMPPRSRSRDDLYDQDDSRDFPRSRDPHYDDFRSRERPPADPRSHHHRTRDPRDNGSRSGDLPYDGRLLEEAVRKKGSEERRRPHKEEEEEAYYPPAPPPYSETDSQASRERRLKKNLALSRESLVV
Experimental: FIGS. 3A, 3B, 3C, and 3D show the effect of LSR subunit transfection on leptin binding and degradation in CHO-K1 cells. For FIG. 3A, CHO-K1 cells were transfected with increasing concentrations of the α, (□), α′ (▪) or β (◯) LSR plasmid, or vector alone (●) using Fugene transfection reagent. After 48 h, the cells were washed once in PBS and incubated at 37° C. for 2 h with 10 ng/mL of ^125I-leptin in DMEM containing 0.2% (w/v) BSA, 2 mM CaCl2 and 5 mM HEPES, pH 7.4 (Buffer A). The monolayers were washed and lysed with 0.1 N NaOH containing 0.24 mM EDTA, and the lysates were counted. The results are shown as the amount of cell-associated ^125I-leptin. For FIG. 3B, lysates were prepared from CHO-K1 wild type, stable transfectants of vector or LSR α′ subunit, and PLC, and separated on a 10% SDS-polyacrylamide gel under denaturing and reduced conditions. After transfer to nitrocellulose, Western blots were performed using anti-LSR 170 antibody (can also be done with the human equivalent, 93A). Northern blots were done to detect LSR mRNA in CHO-K1 wild-type versus PLC. RT-PCR analysis was also done in CHO-K1 as compared to PLC. For FIGS. 3C and 3D, confluent monolayers of stable-transfected cell lines expressing LSR α′ subunit (▪) or vector alone (●) were washed once in PBS and incubated at 37° C. for 2 h with increasing concentrations of ^125I-leptin in Buffer A. The amount of cell-associated (FIG. 3C) and degraded (FIG. 3D) ^125I-leptin was then measured as described herein. Results are shown as the mean of triplicate determinations.
CHO-K1 cells were plated at a density of 300,000 cells/36 mm dish the day before transfection. After 24 h, plasmid preincubated with Fugene transfection reagent was added to the cells, which were further incubated at 37° C. Cells were used 48 h after transfection as described in the Brief Description of the Figures.
Stable transfectants were prepared from CHO-K1 cells using Superfect according to the manufacturer's instructions. After introduction of the plasmid into the cell with Superfect, the cells were grown in the presence of 750 μg/mL zeocin. After elimination of untransfected cells, the antibiotic concentration was reduced to 500 μg/mL. Clones were isolated using cloning cylinders, and maintained in tissue culture media containing 100 μg/mL zeocin.
To determine which of the LSR subunits is responsible for leptin binding, CHO-K1 cells were transiently transfected with increasing concentrations of each of the 3 human LSR plasmids (FIG. 3A). CHO-K1 cells were selected because they had the lowest level of endogenous LSR expression of the different cell lines tested. This level is far lower than that of a human hepatocyte cell line (PLC) used to systematically characterize human LSR activity (FIG. 3B). […]

- Kd ([2]; CHO-K1 cells stably expressing LSR α′, Lineweaver-Burk transformation, read-out: estimated Kd of leptin binding): 1.3 nM
- amount of 125I-leptin degraded as share of that bound and internalized by the cells ([2]; CHO-K1 cells transfected with LSR α′): 16%
- Kd relative to that of the Ob-R ([2]; LSR α′ Kd versus Ob-R Kd): ~2 fold
- binding of leptin to CHO-K1 cells ([2]; transient transfection with LSR α′ plasmid, 10 ng/mL 125I-leptin, 2 h 37° C.): increased
Substance: leptin: plasma protein of 16 kDa produced by adipocytes; recombinant human or mouse leptin, species depends on the experiment
- plasma leptin concentrations [1]: 3.25 ± 0.03 ng/mL
